Measured values from the supplement of paper PMC9876800.

System: peptide library, one residue held at a place counted from the S/T acceptor
Assay: relative phosphorylation of the sub-library (ratio to the mean residue at this position); higher = residue favoured
Conditions: human
In short: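 Relative sub-library phosphorylation is the ratio of each sub-library's signal to the mean residue at that position. The signal came from phosphorimaging of spots on streptavidin membranes, quantified by densitometry, after purified recombinant kinases reacted with biotinylated degenerate peptide sub-libraries in 384-well plates. Reactions held 50 μM peptide and 50 μM ATP spiked with γ-32P-ATP for 90 min under kinase-specific conditions.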

Chain of STK4, construct: Full length (Q13043 whole entry, looked up): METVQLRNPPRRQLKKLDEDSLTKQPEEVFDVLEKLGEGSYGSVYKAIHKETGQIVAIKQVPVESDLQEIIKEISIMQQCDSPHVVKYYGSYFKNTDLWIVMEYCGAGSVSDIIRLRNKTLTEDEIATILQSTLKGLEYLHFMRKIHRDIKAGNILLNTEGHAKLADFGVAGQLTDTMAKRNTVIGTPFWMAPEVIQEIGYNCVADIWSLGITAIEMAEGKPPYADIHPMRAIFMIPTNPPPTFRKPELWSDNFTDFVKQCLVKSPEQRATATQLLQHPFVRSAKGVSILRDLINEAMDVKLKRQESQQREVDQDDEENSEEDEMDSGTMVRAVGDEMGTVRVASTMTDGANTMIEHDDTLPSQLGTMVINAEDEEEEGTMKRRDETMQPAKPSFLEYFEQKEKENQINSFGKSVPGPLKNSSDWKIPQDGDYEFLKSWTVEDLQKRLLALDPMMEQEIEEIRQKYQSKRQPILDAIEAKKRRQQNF

STK4, construct: Full length (from UniProt Q13043)
relative phosphorylation
Conditions	at +1	at +2	at +3	at +4	at -1	at -2	at -3	at -4	at -5
A fixed	0.647	0.612	0.745	0.743	0.705	0.763	0.756	0.771	0.964
D fixed	0.276	0.533	0.669	0.779	1.43	1.46	1.24	1.07	1.35
E fixed	0.245	0.413	0.627	0.668	0.881	1.09	0.916	1.12	0.833
F fixed	0.995	0.677	0.965	0.892	0.877	1.66	1.05	1.02	0.98
G fixed	0.641	0.75	0.917	0.987	1.1	0.747	1.07	0.983	0.91
H fixed	0.703	1.33	1.12	1.05	1.26	1.15	1.06	1.27	1.04
I fixed	1.91	0.449	0.682	0.738	0.329	0.507	0.622	0.766	0.581
K fixed	0.639	3.53	1.85	1.5	1.93	0.591	0.963	1.08	1.15
L fixed	2.6	0.759	0.779	1.01	0.822	0.596	0.577	0.749	0.773
M fixed	2.59	0.588	0.673	0.918	0.735	1	0.658	0.742	0.757
N fixed	0.558	1.13	1.21	1.24	1.45	1.28	1.25	1.06	1.02
P fixed	0.196	0.926	1.19	1.13	0.897	0.681	0.992	0.674	1.33
Q fixed	0.685	1.23	1.07	1.3	1.17	1.03	1.35	1.34	1.24
R fixed	0.615	2.29	2.01	1.19	1.33	0.582	0.78	1.01	1.08
V fixed	1.08	0.779	0.702	0.789	0.397	0.561	0.646	0.954	0.861
W fixed	1.79	0.495	0.884	1.27	0.776	1.59	1.63	1.17	1.09
Y fixed	0.816	0.524	0.898	0.793	0.926	1.72	1.45	1.24	1.05
pThr fixed	0.822	1.04	0.958	0.825	0.594	1.02	0.978	0.889	0.769
pTyr fixed	0.627	0.715	0.937	0.899	0.908	2.04	1.39	0.975	1.09
